# B1: CD47 TMEAbody: CD47 TMEAbody conjugated with PEG of approximately 20K molecular weight (i.e., PEG20K) (conjugate)
# VH: QQQLEESGGGLVKPEGSLTLTCTASGFSFSSGYDMCWVRQAPGRGLEWIACIYTRSSGGTCYASWAKGRFTISKTSSTVDLRMTSLTAADTATYFCAGGRSSYRLNLWGQGALVTVSS
# VL: DVVMTQTPSPVEAAVGGTVTIKCQASQSISNELSWYQQKPGQPPKLLIYRASTLESGVSSRFKGSGSGTEFTLTISDLECADAATYYCQSTFYGDYGNAFGGGTEVVVK
# Key:
# Raji cells [1] = test: FACS binding of CD47 antibody to Raji cells
# Method: The required cell line, Raji (cultured in RPMI-1640 (ATCC Modification, Gibco, Cat# A10491-01) + 10% FBS (BI, Cat# 04-001-1A) + 1× P/S), was expanded to the logarithmic phase. Cells were collected and pipetted to create a single-cell suspension, followed by centrifugation and removal of the supernatant. The cells were resuspended in FACS buffer (PBS + 2% FBS) and counted, and the cell density was adjusted to 2×10^6/ml. 100 µl/well of this suspension was added to a 96-well plate (Corning, Cat# 3799). After centrifugation and removal of the supernatant, 100 µl/well of the antibody sample to be tested (initial concentration of 100 nM, 5-fold gradient dilutions) was added, mixed with the cells, and incubated at 4 °C for 1 hour. Cells were washed by centrifugation with FACS buffer for three times, then added with 100 µl/well of Goat anti-Human IgG Fc Secondary Antibody, PE (eBioscience™, Invitrogen, Cat# 12-4998-82, 1:200 dilution) and incubated at 4 °C for 1 hour. After three washes with FACS buffer by centrifugation, the cells were resuspended in 200 µl/well of FACS buffer and analyzed using FACS (BECKMAN COULTER, CytoFLEX). Data were fitted and the results were analyzed using software (GraphPad Prism 8).
# [2] = tested on: Human red blood cells (RBCs); test: FACS binding to red blood cells
# Method: Human red blood cells (RBCs) (XFB-RBC, 10 ml) were centrifuged, and the supernatant was discarded. The cells were resuspended in FACS buffer (PBS + 2% FBS) and counted, and the cell density was adjusted to 2×10^6/ml. 100 µl/well of this suspension was added to a 96-well plate. After centrifugation and removal of the supernatant, the antibody to be tested (initial concentration of 100 nM, 5-fold gradient dilutions, 8 dilution points) was added at 100 µl/well, mixed with the cells, and incubated at 4 °C for 1 hour. Cells were washed by centrifugation with FACS buffer for three times, then added with 100 µl/well of Goat anti-Human IgG Fc Secondary Antibody, PE (eBioscience™, Invitrogen, Cat# 12-4998-82, 1:200 dilution) and incubated at 4 °C for 1 hour. After three washes with FACS buffer by centrifugation, the cells were resuspended in 200 µl/well of FACS buffer and analyzed using FACS (BECKMAN COULTER, CytoFLEX). Data were fitted and the results were analyzed using software (GraphPad Prism 8).
# Raji cells [3] = test: ADCC assay with PBMCs, LDH detection; type: cell-based
# Method: Raji cells (cultured in RPMI-1640 (ATCC Modification, Gibco, Cat# A10491-01) + 10% FBS (BI, Cat# 04-001-1A) + 1× P/S) were expanded to the logarithmic phase. Cells were collected and pipetted to create a single-cell suspension. After centrifugation, the supernatant was discarded, and the cells were resuspended in culture medium, counted, and the cell density was adjusted to 2×10^5/ml. 50 µl/well of this suspension was added to a 96-well cell culture plate (Corning, Cat# 3599) and incubated overnight at 37°C in a 5% CO2 atmosphere. PBMCs (XF, Cat# XC11100W) were resuspended in 10% FBS-RPMI1640 medium. After centrifugation, the supernatant was discarded, and the cell density was adjusted to 8×10^6/ml. 50 µl/well of the antibody to be tested and 50 µl of the PBMC suspension (E:T ratio of […]) were added to the culture plate. The plate was placed in a CO2 incubator and incubated for 24 hours. The ADCC assay was performed using an LDH detection kit (Cytotoxicity Detection KitPLUS (LDH), Roche, Cat# 4744934001).
# [4] = In vivo hematological toxicity, blood cell counting; parameters: species or system hSIRPA/hCD47 (C57 background) mice; conditions: for PLT Count Mean / RBC Count Mean: 5mg/kg single intraperitoneal dose
# Method: hSIRPA/hCD47 (C57 background) mice were randomly divided into 4 groups based on body weight, with 3 mice per group. The hematological toxicity of 70H1.IgG1.Y61C+20K and 70H1.IgG1.Y61C+40K was studied via intraperitoneal injection.
# The experimental groups were divided as follows: • 70H1.IgG1.Y61C+20K (5 mg/kg) group, • 70H1.IgG1.Y61C+40K (10 mg/kg) group, • 70H1.IgG1.Y61C+40K (20 mg/kg) group, • 70H1.IgG1.Y61C+40K (30 mg/kg) group.
# After grouping, a single dose of the corresponding antibody was administered intraperitoneally to the mice. Blood cell counting was performed on the mice at D0 (pre-dose), D2, D5, D7, D9, and D12.
molecule,measurement,setting,value
B1,binding to Raji cells lower compared to 70H1,Raji cells [1],approximately 60 fold
same,binding to red blood cells,[2],essentially no binding to red blood cells
same,EC50,"Raji cells [3]; ADCC, E:T ratio of 20:1, 24 hours",16.3 nM
same,ADCC activity,Raji cells [3]; after the CD47 TMEAbody was activated,restored
same,ADCC activity,"Raji cells [3]; not activated, compared to the 70H1 antibody",lost its ADCC activity
same,PLT Count Mean,[4]; D0 (pre-dose),1668.33 10^9/L
same,RBC Count Mean,[4]; D0 (pre-dose),8.53 10^12/L
same,PLT Count Mean,[4]; D2,1406.33 10^9/L
same,RBC Count Mean,[4]; D2,6.56 10^12/L
same,PLT Count Mean,[4]; D5,1142.33 10^9/L
same,RBC Count Mean,[4]; D5,7.48 10^12/L
same,PLT Count Mean,[4]; D7,1435.33 10^9/L
same,RBC Count Mean,[4]; D7,9.62 10^12/L
same,PLT Count Mean,[4]; D9,1356.00 10^9/L
same,RBC Count Mean,[4]; D9,9.55 10^12/L
same,PLT Count Mean,[4]; D12,1351.00 10^9/L
same,RBC Count Mean,[4]; D12,9.45 10^12/L
same,change in red blood cells,"[4]; 5 mg/kg, D2 post-administration",reversible decrease in red blood cells
same,change in platelets,"[4]; 5 mg/kg, D5 post-administration",reversible decrease in platelets

# — patent EP4793287A1, “TUMOR MICROENVIRONMENT SPECIFICALLY ACTIVATED CD47 ANTIBODY” (Affinity (Shanghai) Biopharmaceutical Co., Ltd., priority 2023, dated 2025)
